# Measurements published in article PMC10045489 (Bioengineering, 2023).
# Target: T1, full-length His-tagged SARS-CoV-2 spike protein (wild-type) (SARS-CoV-2, wild-type (Wuhan-Hu-1), UniProt P0DTC2)
# T1 construct: also called full-length S-protein; full-length Spike protein; source: CHO Express cells, cell medium purified by Ni-IMAC; not shown: His-tag, C-terminal, kept
# Assay: BLI
# Settings: both partners purified
binder,measurement,value
"Nb20 nanobody (VHH, not shown: ecotin, N-terminal, cleaved; His-tag, N-terminal, cleaved) VHH: QVQLVESGGGLVQAGGSLRLSCAVSGAGAHRVGWFRRAPGKEREFVAAIGASGGMTNYLDSVKGRFTISRDNAKNTIYLQMNSLKPQDTAVYYCAARDIETAEYIYWGQGTQVTVSS",Kd,~1 nM
